Two molecules from publication PMC2556094 (The EMBO Journal, 2008) can be followed below.

Test [1] concerns the target Hsp90 (of the ITC in Supplementary Figure 1). Description: ITC. Background: In ITC the heat of successive injections is recorded.
Another test deals with human Skp1 (human) (UniProt P63208). Briefly: ITC.
The target in a further test is His6-tagged human Hsp90β (human, UniProt P08238 1-724). Briefly: pull-down.

Usually stoichiometry N stands for the number of molecules, sites or subunits per partner or assembly. By Kd is commonly meant the concentration at which binding is half-saturated. High values mean lower affinity, low ones higher affinity.

Sequence of His6-tagged human Hsp90β (P08238 whole entry): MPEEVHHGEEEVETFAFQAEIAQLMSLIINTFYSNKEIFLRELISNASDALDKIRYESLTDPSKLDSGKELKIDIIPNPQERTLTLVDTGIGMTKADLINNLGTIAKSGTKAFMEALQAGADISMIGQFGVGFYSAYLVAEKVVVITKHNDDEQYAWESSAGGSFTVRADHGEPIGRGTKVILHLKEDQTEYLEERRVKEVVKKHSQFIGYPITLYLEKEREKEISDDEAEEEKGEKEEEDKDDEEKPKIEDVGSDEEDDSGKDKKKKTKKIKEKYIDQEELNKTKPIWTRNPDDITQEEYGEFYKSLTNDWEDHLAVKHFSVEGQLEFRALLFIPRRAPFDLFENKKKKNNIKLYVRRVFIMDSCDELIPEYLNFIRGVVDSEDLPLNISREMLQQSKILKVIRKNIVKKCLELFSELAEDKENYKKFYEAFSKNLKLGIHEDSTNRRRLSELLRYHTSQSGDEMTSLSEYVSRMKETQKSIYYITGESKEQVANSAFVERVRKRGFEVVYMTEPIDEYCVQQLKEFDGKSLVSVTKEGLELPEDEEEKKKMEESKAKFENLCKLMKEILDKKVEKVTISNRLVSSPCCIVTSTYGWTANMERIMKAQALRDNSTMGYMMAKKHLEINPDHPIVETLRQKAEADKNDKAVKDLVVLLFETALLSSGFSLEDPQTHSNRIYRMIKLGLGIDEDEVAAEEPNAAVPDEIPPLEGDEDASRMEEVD

Regarding “Sgt1 (of the ITC in Supplementary Figure 1) (natural protein)”, the stoichiometry N in test [1] worked out at 1.

B1: human Sgt1, wild type (natural protein, UniProt Q9Y2Z0-2 1-333, looked up)
chain: MAAAAAGTATSQRFFQSFSDALIDEDPQAALEELTKALEQKPDDAQYYCQRAYCHILLGNYCVAVADAKKSLELNPNNSTAMLRKGICEYHEKNYAAALETFTEGQKLDSADANFSVWIKRCQEAQNGSESEVWTHQSKIKYDWYQTESQVVITLMIKNVQKNDVNVEFSEKELSALVKLPSGEDYNLKLELLHPIIPEQSTFKVLSTKIEIKLKKPEAVRWEKLEGQGDVPTPKQFVADVKNLYPSSSPYTRNWDKLVGEIKEEEKNEKLEGDAALNRLFQQIYSDGSDEVKRAMNKSFMESGGTVLSTNWSDVGKRKVEINPPDDMEWKKY
B1 yielded a Kd with human Skp1 (human) of 1.64 µM. In addition, the binding result with His6-tagged human Hsp90β was “binds”.
